Measurements reported in the supplement of paper PMC9112550, “Optimization of the antimicrobial peptide Bac7 by deep mutational scanning” (BMC Biology, 2022).

Test system: Escherichia coli TOP10
Assay: shrunken log2 fold change of peptide-encoding DNA abundance (4.5 h post-induction vs induction); higher = less antimicrobial activity (less host growth inhibition)
Details: time post-induction: 4.5 h; library: site-saturation at positions 5, 18, 19, 20
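Note: peptides expressed intracellularly from a pBAD plasmid library in pooled LB shake-flask culture, induced with 0.3% L-arabinose, DNA abundance read by NGS, three biological replicates, DESeq2 with apeglm shrinkage.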

Sequence	shrunken log2 fold change
RRIRIRPPRLPRPRPRPLLVPRP	-0.565
RRIRKRPPRLPRPRPRPYYEPRP	-0.493
RRIRQRPPRLPRPRPRPSNQPRP	-0.359
RRIRSRPPRLPRPRPRPMDQPRP	0.362
RRIRYRPPRLPRPRPRPTCCPRP	-0.194
RRIRARPPRLPRPRPRPLYSPRP	-0.122
RRIRNRPPRLPRPRPRPWTPPRP	-0.0926
RRIRWRPPRLPRPRPRPYWIPRP	-0.81
RRIRRRPPRLPRPRPRPSYWPRP	-0.0367
RRIRTRPPRLPRPRPRPKGFPRP	0.0975
RRIRTRPPRLPRPRPRPKSQPRP	-0.285
RRIRPRPPRLPRPRPRPQVRPRP	-0.13
RRIRMRPPRLPRPRPRPRMAPRP	1.38
RRIRCRPPRLPRPRPRPLSHPRP	-0.432
RRIRFRPPRLPRPRPRPCLSPRP	-0.0617
RRIRDRPPRLPRPRPRPDSPPRP	-0.248
RRIRLRPPRLPRPRPRPCWTPRP	-0.252
RRIRMRPPRLPRPRPRPYYAPRP	-0.948
RRIRYRPPRLPRPRPRPELFPRP	-0.0192
RRIRWRPPRLPRPRPRPKPTPRP	0.0876
RRIRHRPPRLPRPRPRPWFHPRP	-0.525
RRIRNRPPRLPRPRPRPNISPRP	-0.476
RRIRPRPPRLPRPRPRPDRGPRP	0.0265
RRIRQRPPRLPRPRPRPPYSPRP	-0.224
RRIRFRPPRLPRPRPRPGGLPRP	0.217

Sequence	shrunken log2 fold change
RRIRGRPPRLPRPRPRPRDMPRP	0.339
RRIRPRPPRLPRPRPRPGKKPRP	0.00372
RRIRCRPPRLPRPRPRPLKTPRP	-0.0197
RRIRWRPPRLPRPRPRPMRYPRP	-0.0679
RRIRERPPRLPRPRPRPHGFPRP	-0.0632
RRIRFRPPRLPRPRPRPNVPPRP	-0.0369
RRIRHRPPRLPRPRPRPPQIPRP	-0.0667
RRIRIRPPRLPRPRPRPINGPRP	-0.383
RRIRKRPPRLPRPRPRPHLNPRP	0.14
RRIRERPPRLPRPRPRPIKNPRP	-1.13
RRIRQRPPRLPRPRPRPNWDPRP	0.126
RRIRARPPRLPRPRPRPSSNPRP	1.2
RRIRLRPPRLPRPRPRPIDAPRP	0.206
RRIRVRPPRLPRPRPRPSCEPRP	-0.303
RRIRYRPPRLPRPRPRPCPIPRP	0.0143
RRIRYRPPRLPRPRPRPNGHPRP	-0.24
RRIRNRPPRLPRPRPRPAPTPRP	0.809
RRIRWRPPRLPRPRPRPEATPRP	1.44
RRIRMRPPRLPRPRPRPFLKPRP	-0.636
RRIRDRPPRLPRPRPRPMADPRP	0.523
RRIRARPPRLPRPRPRPKAWPRP	0.146
RRIRMRPPRLPRPRPRPTILPRP	-0.0108
RRIRERPPRLPRPRPRPGCWPRP	0.166
RRIRRRPPRLPRPRPRPWQYPRP	0.0419
RRIRPRPPRLPRPRPRPWMVPRP	0.0262

Sequence	shrunken log2 fold change
RRIRRRPPRLPRPRPRPQSTPRP	-0.095
RRIRIRPPRLPRPRPRPGYRPRP	-0.217
RRIRSRPPRLPRPRPRPKGGPRP	0.149
RRIRWRPPRLPRPRPRPGSMPRP	-0.0806
RRIRSRPPRLPRPRPRPEFQPRP	0.161
RRIRQRPPRLPRPRPRPMKHPRP	-0.373
RRIRMRPPRLPRPRPRPFDNPRP	0.0191
RRIRRRPPRLPRPRPRPCEQPRP	-0.0395
RRIRQRPPRLPRPRPRPKFWPRP	0.104
RRIRVRPPRLPRPRPRPIWTPRP	-0.0382
RRIRERPPRLPRPRPRPANRPRP	0.111
RRIRQRPPRLPRPRPRPQKCPRP	-0.00409
RRIRARPPRLPRPRPRPSLPPRP	0.157
RRIRGRPPRLPRPRPRPFCMPRP	0.0902
RRIRMRPPRLPRPRPRPPPHPRP	1.62
RRIRNRPPRLPRPRPRPVAWPRP	-0.01
RRIRGRPPRLPRPRPRPYSPPRP	-0.528
RRIRSRPPRLPRPRPRPFIVPRP	-0.477
RRIRCRPPRLPRPRPRPMWNPRP	-0.195
RRIRIRPPRLPRPRPRPEPAPRP	0.326
RRIRARPPRLPRPRPRPGFVPRP	0.42
RRIRFRPPRLPRPRPRPEPDPRP	-0.0658
RRIRDRPPRLPRPRPRPCCPPRP	-0.449
RRIRERPPRLPRPRPRPLEAPRP	0.105
RRIRFRPPRLPRPRPRPQGRPRP	0.19

Sequence	shrunken log2 fold change
RRIRHRPPRLPRPRPRPSSCPRP	-0.0272
RRIRGRPPRLPRPRPRPDDYPRP	0.662
RRIRRRPPRLPRPRPRPCKGPRP	0.0306
RRIRRRPPRLPRPRPRPMGLPRP	-0.0617
RRIRCRPPRLPRPRPRPVDSPRP	0.176
RRIRFRPPRLPRPRPRPPDCPRP	0.191
RRIRRRPPRLPRPRPRPWCAPRP	0.419
RRIRCRPPRLPRPRPRPPWEPRP	-0.0369
RRIRHRPPRLPRPRPRPSSPPRP	-0.316
RRIRDRPPRLPRPRPRPGDKPRP	0.088
RRIRTRPPRLPRPRPRPHRTPRP	-0.615
RRIRCRPPRLPRPRPRPYHSPRP	-0.73
RRIRTRPPRLPRPRPRPHWNPRP	-0.424
RRIRHRPPRLPRPRPRPACAPRP	0.436
RRIRERPPRLPRPRPRPKVCPRP	-0.0496
RRIRRRPPRLPRPRPRPPEDPRP	1.34
RRIRPRPPRLPRPRPRPQIMPRP	-0.265
RRIRHRPPRLPRPRPRPQMCPRP	-0.0203
RRIRCRPPRLPRPRPRPAEYPRP	-0.335
RRIRNRPPRLPRPRPRPSEVPRP	-0.0684
RRIRWRPPRLPRPRPRPHHRPRP	-0.214
RRIRARPPRLPRPRPRPFARPRP	-0.0584
RRIRYRPPRLPRPRPRPWFNPRP	-0.0994
RRIRTRPPRLPRPRPRPKRDPRP	0.187
RRIRMRPPRLPRPRPRPASSPRP	-0.00458

Sequence	shrunken log2 fold change
RRIRARPPRLPRPRPRPWALPRP	0.172
RRIRFRPPRLPRPRPRPSHRPRP	-0.214
RRIRYRPPRLPRPRPRPQNQPRP	-0.562
RRIRVRPPRLPRPRPRPHGYPRP	-0.298
RRIRIRPPRLPRPRPRPPIKPRP	-0.4
RRIRRRPPRLPRPRPRPRENPRP	0.135
RRIRDRPPRLPRPRPRPDLWPRP	-0.0295
RRIRWRPPRLPRPRPRPVVEPRP	0.0281
RRIRARPPRLPRPRPRPAMAPRP	0.479
RRIRERPPRLPRPRPRPSAPPRP	0.18
RRIRVRPPRLPRPRPRPPKDPRP	0.219
RRIRHRPPRLPRPRPRPCSMPRP	-0.0569
RRIRDRPPRLPRPRPRPNWEPRP	0.0184
RRIRTRPPRLPRPRPRPRYTPRP	0.0216
RRIRDRPPRLPRPRPRPKLRPRP	-0.0184
RRIRMRPPRLPRPRPRPLLAPRP	2.1
RRIRMRPPRLPRPRPRPTWCPRP	-0.0681
RRIRNRPPRLPRPRPRPPKEPRP	-0.166
RRIRDRPPRLPRPRPRPMIHPRP	0.318
RRIRRRPPRLPRPRPRPFWHPRP	-0.0292
RRIRHRPPRLPRPRPRPSFYPRP	-1.09
RRIRYRPPRLPRPRPRPSSMPRP	-0.999
RRIRYRPPRLPRPRPRPGWQPRP	0.015
RRIRWRPPRLPRPRPRPMTEPRP	0.804
RRIRRRPPRLPRPRPRPKTKPRP	-0.146

Sequence	shrunken log2 fold change
RRIRPRPPRLPRPRPRPQIEPRP	-0.0699
RRIRWRPPRLPRPRPRPAEYPRP	0.101
RRIRARPPRLPRPRPRPWPKPRP	0.508
RRIRDRPPRLPRPRPRPSSEPRP	0.186
RRIRGRPPRLPRPRPRPFWRPRP	0.297
RRIRGRPPRLPRPRPRPMGKPRP	0.375
RRIRVRPPRLPRPRPRPPFLPRP	1.11
RRIRWRPPRLPRPRPRPQSEPRP	-0.338
RRIRERPPRLPRPRPRPGKQPRP	-0.0388
RRIRVRPPRLPRPRPRPDVPPRP	-0.0976
RRIRIRPPRLPRPRPRPKFRPRP	-0.0682
RRIRKRPPRLPRPRPRPMTTPRP	0.31
RRIRTRPPRLPRPRPRPATMPRP	-0.0723
RRIRKRPPRLPRPRPRPANFPRP	-0.0479
RRIRDRPPRLPRPRPRPQMYPRP	-0.127
RRIRSRPPRLPRPRPRPCLWPRP	0.0729
RRIRGRPPRLPRPRPRPKSLPRP	0.413
RRIRPRPPRLPRPRPRPQSKPRP	-0.237
RRIRGRPPRLPRPRPRPCTNPRP	0.247
RRIRFRPPRLPRPRPRPNEPPRP	-0.00783
RRIRLRPPRLPRPRPRPSYIPRP	-0.427
RRIRHRPPRLPRPRPRPGAVPRP	0.433
RRIRRRPPRLPRPRPRPREQPRP	0.803
RRIRERPPRLPRPRPRPPPWPRP	0.318
RRIRWRPPRLPRPRPRPRKYPRP	0.0119
